# B1: Recombinant human Keratinocyte Growth Factor (hKGF) (ligand, UniProt P21781 32-194, looked up)
# chain: CNDMTPEQMATNVNCSSPERHTRSYDYMEGGDIRVRRLFCRTQWYLRIDKRGKVKGTQEMKNNYNIMEIRTVAVGIVAIKGVESEFYLAMNKEGKLYAKKECNEDCNFKELILENHYNTYASAKWTHNGGEMFVALNQKGIPVRGKKTKKEQKTAHFLPMAIT
# Assays:
# [1] = biological target: human KGF receptor on transfected NIH3T3 cells (NIH3T3/FGFR-2) (human) (UniProt P21802); test: competition of unlabeled hKGF with 125I-hKGF for binding to NIH3T3/FGFR-2 cells, with 1 ug/ml heparin
# [2] = biological target: hKGF receptor on the surface of PC-3 prostatic carcinoma cells (UniProt P21802); test: competition of unlabeled hKGF with 125I-hKGF for binding to PC-3 cells
# [3] = biological target: hKGF receptor on the surface of PC-3 prostatic carcinoma cells (UniProt P21802); test: value used to calculate Ki from IC50 in the PC-3 cell assay (FIG. 12 legend)
# [4] = biological target: hKGF receptor on the surface of PC-3 prostatic carcinoma cells (UniProt P21802); test: saturation binding of 125I-hKGF on PC-3 cells, Scatchard analysis
# [5] = biological target: hKGF receptor on the surface of PC-3 prostatic carcinoma cells (UniProt P21802); test: competition of unlabeled hKGF with 125I-hKGF for binding to PC-3 cells, full competition curve
binder,measurement,setting,value
B1,Ki,[1],0.034 nM
same,IC50,[2],70 nM
same,Kd,[3],0.15 nM
same,Kd,[4],0.1 to 0.2 nM
same,Ki,[5],7.7 nM
